# Data from patent publication US20230159935, “[…] BIFUNCTIONAL […] AND TRIFUNCTIONAL […] TARGETING Tau” (UNIVERSITY OF FLORIDA RESEARCH FOUNDATION, INCORPORATED, published 2023).
# B1: BW10 (ssDNA)
# DNA: TCACCTGAGACTTGACGATGGCAATCCCCCCGACACCGAATCCTAAGCGAACAACGCGAGTGCTATCGTCTGTCCA
# B2: BW8 (ssDNA)
# DNA: TCACCTGAGACTTGACGATGGCACTACCCCTCCCTACTAAGCACGGTATCTTGTACTGAGTGCTATCGTCTGTCCA
# B3: Circular Tau-TfR bispecific aptamer (structured_DNA)
# DNA: TGACTGATTTACGGAAGCTGAATAAGGACTGCTTAGGATTGCGATGATTCAGCTTCCGTAAATCAGTCAGAAGGCGTGGTACCACGCTTTC
# B4: BW3 (ssDNA)
# DNA: TCACCTGAGACTTGACGATGGAACTCCCCCCACCATTATCAGCGCACCACCATTGTAGAGTGCTATCGTCTGTCCA
# B5: BW2 (ssDNA)
# DNA: TCACCTGAGACTTGACGATGGCCTCCCCCTCACGCACTCTTCCGTTTCTTCTTATCTGAGTGCTATCGTCTGTCCA
# B6: BW4 (ssDNA)
# DNA: TCACCTGAGACTTGACGATGGTTTAACTCCCCCACGCCCCCCGCCAACCCATCTCCAGAGTGCTATCGTCTGTCCA
# B7: BW5 (ssDNA)
# DNA: TCACCTGAGACTTGACGATGGTACGACGGCCCCCCGATTATGCGACTACTTGATTTGAGTGCTATCGTCTGTCCA
# B8: IT2a Tau aptamer (13-base extended) (ssDNA)
# DNA: TGACTGATTTACGGAAGCTGAATAAGGACTGCTTAGGATTGCGATGATTCAGCTTC
# B9: BW1c (ssDNA)
# DNA: GACGATAGCATCACTCCCCCCCACCTATTACATCATCATAAATTGAGTGCTATCGTC
# B10: BW7 (ssDNA)
# DNA: TCACCTGAGACTTGACGATGGTGACCACCCCCCACGCACACACACCTCTTCCATCCTGAGTGCTATCGTCTGTCCA
# B11: BW1 (ssDNA)
# DNA: TCACCTGAGACTTGACGATGGCATCACTCCCCCCCACCTATTACATCATCATAAATTGAGTGCTATCGTCTGTCCA
# B12: BW9 (ssDNA)
# DNA: TCACCTGAGACTTGACGATGGGAACAAACACCGCGACCACCCCCCCACTTAACTCCTGAGTGCTATCGTCTGTCCA
# B13: BW6 (ssDNA)
# DNA: TCACCTGAGACTTGACGATGGTCAGAACGACGCGCCCCCCACCTCATTCATTATTTTGAGTGCTATCGTCTGTCCA
# Experiments:
# [1] = target: T1, Bovine serum albumin (BSA) (Bos taurus, UniProt P02769 P02769:25-607); assay: dot blot
# Description: (§1) FIG. 38A is the flow cytometry results analyzing primary binding between aptamer candidates and Tau 441. FIG. 38B is a dot blot assay showing aptamer binding specificity. FIG. 38A Primary binding analysis between aptamer candidates and Tau 441. FIG. 38B Aptamers binding specificity by dot blot assay. The nitrocellulose membranes were socked in methanol until becoming wet (1 min) then the membranes were washed with PBST solution for 5 mins. BSA, Casein, IgG, Tau and P-Tau (1 μg per protein) were respectively immobilized as striped dots on the NC membranes by air-drying. The membranes were blocked with 1% fat-free milk in PBST for 1 hour and incubated with heat-denatured aptamers (250 nM) labeled with FAM for 1 hour at room temperature. Control DNA were random sequence DNA with FAM label. The membranes were washed three times with TBST. Dots were scanned by Typhoon Imaging System (Amersham Biosciences).
# (§2) The preliminary investigation of binding ability between aptamers and Tau441 was validated by flow cytometry. […] Furthermore, the binding specificity of the selected tau aptamers to full-length Tau441 protein was confirmed by dot blotting by incubating each of the FAM-labeled aptamers with nitrocellulose membranes which have already been immobilized with either target Tau441 protein or nontarget proteins (FIG. 38B). […] No cross-reactivity was observed between the aptamers and the nontarget proteins, including: α casein, β casein, BSA (bovine serum albumin), and IgG (immunoglobin G). Particularly, the membranes were blocked by milk after immobilizing with each protein which further illustrated the strong specificity of the obtained aptamers.
# Tau441 (2N4R tau) [2] = target: T2, Tau441 (2N4R tau) (Homo sapiens, UniProt P10636-8 P10636-8:1-441); assay: dot blot, 250 nM; details: tags: N-terminal His-tag, SignalChem (biotin-labelled for functional SELEX and BLI); label: FAM
# Description: as §1, §2
# Tau441 (2N4R tau) [3] = target: T2, Tau441 (2N4R tau); assay: EMSA; 400 nM aptamer, 0.2 mg/mL protein, 4 C; details: tags: N-terminal His-tag, SignalChem (biotin-labelled for functional SELEX and BLI)
# Description: (§3) To determine the specificity of the circular aptamer against Tau441 protein, 5 μL of 400 nM Tau (IT2a) aptamer or circular aptamer were first incubated with 0.2 mg/mL target Tau441 protein or control proteins (S100B, BSA) at 4° C. for 30 minutes. Then, each sample was loaded onto an 8% native PAGE gel. The gel was run in 1×TBE at 70 V for 10 minutes and 150 V for 40 minutes. Finally, the gel was stained with Coomassie blue for protein detection and scanned in the fluorescein channel using Typhoon for aptamer detection.
# (§4) After interaction, each sample was loaded onto the nondenaturing gel for protein detection with Coomassie Brilliant Blue staining (FIG. 13A) and aptamer fluorescence (FIG. 13B) detection. […] Five microliters of 400 nM Tau (IT2a) aptamer or circular aptamer was first incubated with 0.2 mg/mL target Tau441 protein or control proteins at 4° C. for 30 minutes. […] For FIG. 13A and FIG. 13 B, Lanes 1 and 6: Ladder; Lane 2: IT2a aptamer; Lane 3: IT2a aptamer+Tau441 (67 kDa); Lane 4: IT2a aptamer+S100B (9 kDa); Lane 5: IT2a aptamer+BSA (66 kDa); Lane 7: Circular aptamer; Lane 8: Circular aptamer+Tau411 (67 kDa); Lane 9: Circular aptamer+S100B (9 kDa); Lane 10: Circular aptamer+BSA (66 kDa).
# [4] = target: T1, Bovine serum albumin (BSA); assay: EMSA; specificity control; details: label: one or two FITC-dT
# Description: as §3, §4
# [5] = target: T1, Bovine serum albumin (BSA); assay: EMSA; profile stated same as circular aptamer; details: label: FITC-dT near 3' end; hairpin
# Description: as §3, §4
# Tau441 (2N4R tau) [6] = target: T2, Tau441 (2N4R tau); assay: dot blot, 100 nM; stronger than BW1, BW1a, BW1b; details: tags: N-terminal His-tag, SignalChem (biotin-labelled for functional SELEX and BLI); label: 5' Cy5
# Description: The nitrocellulose membranes were socked in methanol till it becomes wet (1 min) then the membranes were washed with TBST solution for 5 mins. Tau protein (stripped band 0.5 μg) were dripped on the NC membranes in every dot and then waited to dry (2 mins). The membranes were blocked with 1% fat-free milk in TBST for 1 hour and were respectively incubated with series of heat denatured aptamers (250 nM) for 1 hour in blocking buffer (contain 0.5 mM Mg²⁺) at room temperature. Next the membrane was washed for three times by TBST, 5 min for each time. Dots were scanned simultaneously by a Typhoon Imaging System (Amersham Biosciences).
# Tau441 (2N4R tau) [7] = target: T2, Tau441 (2N4R tau); assay: dot blot, 250 nM; best flow cytometry shift; Kd only in figure; details: tags: N-terminal His-tag, SignalChem (biotin-labelled for functional SELEX and BLI); label: FAM or 5' Cy5
# Description: as §1
# The preliminary investigation of binding ability between aptamers and Tau441 was validated by flow cytometry. […] Furthermore, the binding specificity of the selected tau aptamers to full-length Tau441 protein was confirmed by dot blotting by incubating each of the FAM-labeled aptamers with nitrocellulose membranes which have already been immobilized with either target Tau441 protein or nontarget proteins (FIG. 38B). […]
# T2 sequence (P10636 other isoform, or with tags, fused parts or gaps): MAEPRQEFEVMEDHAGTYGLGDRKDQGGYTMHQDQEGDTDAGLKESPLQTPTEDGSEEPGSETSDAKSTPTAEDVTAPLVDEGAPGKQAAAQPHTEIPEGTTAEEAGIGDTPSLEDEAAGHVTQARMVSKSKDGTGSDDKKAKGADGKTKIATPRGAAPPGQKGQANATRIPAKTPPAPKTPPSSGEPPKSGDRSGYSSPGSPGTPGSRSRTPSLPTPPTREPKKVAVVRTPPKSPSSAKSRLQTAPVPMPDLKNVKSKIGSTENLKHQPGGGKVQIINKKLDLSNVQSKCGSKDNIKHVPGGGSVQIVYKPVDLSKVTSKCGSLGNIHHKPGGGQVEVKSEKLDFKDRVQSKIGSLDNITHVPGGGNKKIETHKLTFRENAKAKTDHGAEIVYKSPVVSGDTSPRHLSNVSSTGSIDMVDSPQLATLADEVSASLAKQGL
# T1 sequence (P02769 25-607, one chain of several): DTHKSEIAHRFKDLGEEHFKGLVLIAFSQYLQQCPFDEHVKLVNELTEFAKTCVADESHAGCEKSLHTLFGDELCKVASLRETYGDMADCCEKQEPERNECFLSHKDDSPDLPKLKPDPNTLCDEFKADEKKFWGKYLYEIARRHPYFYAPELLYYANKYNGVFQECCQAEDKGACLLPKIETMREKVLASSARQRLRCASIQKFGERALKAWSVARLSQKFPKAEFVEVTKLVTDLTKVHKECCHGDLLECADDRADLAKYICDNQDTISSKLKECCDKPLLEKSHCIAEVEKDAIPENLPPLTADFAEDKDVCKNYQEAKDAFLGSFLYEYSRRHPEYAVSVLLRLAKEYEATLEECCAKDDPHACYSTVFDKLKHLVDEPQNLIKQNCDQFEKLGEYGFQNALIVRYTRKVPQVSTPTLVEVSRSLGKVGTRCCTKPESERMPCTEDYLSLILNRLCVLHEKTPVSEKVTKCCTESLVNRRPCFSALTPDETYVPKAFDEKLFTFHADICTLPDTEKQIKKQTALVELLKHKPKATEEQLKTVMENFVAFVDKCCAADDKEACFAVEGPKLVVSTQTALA
Binder,binding result ([1]; label: FAM),binding result (Tau441 (2N4R tau) [2]),further results
B1,no binding,binds,–
B2,no binding,binds,–
B3,–,–,binding result (Tau441 (2N4R tau) [3]; label: one or two FITC-dT): binds; binding result [4]: no binding
B4,no binding,binds,–
B5,no binding,binds,–
B6,no binding,binds,–
B7,no binding,binds,–
B8,–,–,"binding result [5]: no binding; binding result (Tau441 (2N4R tau) [3]; label: FITC-dT near 3' end, hairpin): binds"
B9,–,–,binding result (Tau441 (2N4R tau) [6]): binds
B10,no binding,binds,–
B11,–,–,binding result ([1]; label: FAM or 5' Cy5): no binding; binding result (Tau441 (2N4R tau) [7]): binds
B12,no binding,binds,–
B13,no binding,binds,–
